In assay [1] the target is T1, canine IL-31 protein (Canine_IL31) (canine).
T1 chain: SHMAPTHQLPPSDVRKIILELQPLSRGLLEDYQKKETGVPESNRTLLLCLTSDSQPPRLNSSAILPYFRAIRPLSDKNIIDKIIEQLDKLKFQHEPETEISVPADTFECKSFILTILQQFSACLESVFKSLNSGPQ

In assay [2] the target is T2, wildtype feline IL-31 protein (Feline_IL31_wildtype) (feline).
T2 construct: Full length feline IL-31 with C-terminal His tag, secreted from ExpiCHO cells; also called fIL-31
T2 chain: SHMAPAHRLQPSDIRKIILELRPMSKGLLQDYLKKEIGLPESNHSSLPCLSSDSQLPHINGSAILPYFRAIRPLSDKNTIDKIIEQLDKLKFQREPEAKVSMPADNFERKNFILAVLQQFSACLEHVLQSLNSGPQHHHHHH
As to the kind of experiment: SPR (Biacore), IL-31 on chip, 1:1 fit. In outline: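 IL-31 was amine-coupled (NHS/EDC) to the chip at 5 μg/mL and quenched with ethanolamine, and candidate mAbs were flowed over it as analytes. Binding curves were fitted to a 1:1 model.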
On the technique in general: Surface plasmon resonance follows binding to a sensor surface in real time, without labels.

Another assay concerns the target T3, human IL-31 (human, UniProt Q6EBC2 24-164).
T3 sequence: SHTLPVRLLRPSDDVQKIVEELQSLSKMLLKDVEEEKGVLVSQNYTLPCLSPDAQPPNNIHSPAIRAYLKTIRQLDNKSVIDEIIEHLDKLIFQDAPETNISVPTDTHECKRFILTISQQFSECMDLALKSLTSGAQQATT
The assay is described as follows: SPR (Biacore), IL-31 surface, single antibody concentration.

This note sets out measurements from patent US20250136677A1 (ZOETIS SERVICES, published 2025).

B1: mouse anti IL-31 antibody 15H05 (antibody, mouse IgG1, kappa)
heavy: QVQLQQSAAELARPGASVKMSCKTSGYTFTSYTIHWIKQRPGQGLEWIGNINPTSGYTENNQRFKDKTTLTVDRSSNTAYLQLHSLTSEDSAVYFCARWGFKYDGEWSFDVWGAGTTVTVSSKTTPPSVYPLAPGSAAQTNSMVTLGCLVKGYFPEPVTVTWNSGSLSSGVHTFPAVLESDLYTLSSSVTVPSSPRPSETVTCNVAHPASSTKVDKKIVPRDCGCKPCICTVPEVSSVFIFPPKPKDVLTITLTPKVTCVVVDISKDDPEVQFSWFVDDVEVHTAQTQPREEQFNSTFRSVSELPIMHQDWLNGKEFKCRVNSAAFPAPIEKTISKTKGRPKAPQVYTIPPPKEQMAKDKVSLTCMITDFFPEDITVEWQWNGQPAENYKNTQPIMNTNGSYFVYSKLNVQKSNWEAGNTFTCSVLHEGLHNHHTEKSLSHSPGK
light: DIQMNQSPSSLSASLGDTITVTCRASQGISIWLSWYQQKPGNIPKVLINKASNLHIGVPPRFSGSGSGTHFTLTITSLQPEDIATYYCLQSQTYPLTFGGGTKLEINADAAPTVSIFPPSSEQLTSGGASVVCFLNNFYPKDINVKWKIDGSERQNGVLNSWTDQDSKDSTYSMSSTLTLTKDEYERHNSYTCEATHKTSTSPIVKSFNRNEC
notes: Mouse hybridoma antibody, IgG1 kappa; also called Mu-15H05; MU-15H05
Consider B1, for which the IC50, inhibition of canine IL-31-induced STAT3 phosphorylation, feline FCWF4 cells in assay [1] was 25.7 µg/mL. In assay [2], the Kd – broadly, the concentration at which binding is half-saturated – was 0.348 nM; the koff (usually the first-order rate constant of dissociation) amounted to 1.69e-05 s⁻¹; the kon – broadly, a measure of how fast the partners come together – was found to be 48400 M⁻¹ s⁻¹. In the assay with human IL-31, the binding result is on record as “no binding”.
